US20240252606A1 (CHANGCHUN BCHT BIOTECHNOLOGY, published 2024)

Target: the molecule itself
Test: native gel electrophoresis, self-assembly

Protein	binding result
lysine-modified norovirus capsid P protein PP-3K (other, self-assembles into dodecamers and tetracosamers) MGKPFSVPILTVEEMTNSRFPIPLEKLFTGPSSAFVVQPQNGRCTTDGVLLGTTQLSPVNICTFRGDVTHIAGKTQNYTMNLASQNWNNYDPTEEIPAPLGTPDFVGRIQGVLTQTTRRDGSTRGHKATVSTGSVHFTPKLGSVQFSTDTSKNDFETGQNTRFTPVGVVQDGKSTTHQNEPQQWVLPDYSGRDSHNVHLAPAVAPTFPGEQLLFFRSTMPGCSGYPNMNLDCLLPQEWVQHFYQESAPAQSDVALLRFVNPDTGRVLFECKLHKSGYVTVAHTGQHDLVIPPNGYFRFDSWVNQFYTLAPMGNGAGRRRAL	binds
cysteine-modified norovirus capsid P protein PP-3C (other, self-assembles into dodecamers and tetracosamers) MGKPFSVPILTVEEMTNSRFPIPLEKLFTGPSSAFVVQPQNGRCTTDGVLLGTTQLSPVNICTFRGDVTHIAGCQNYTMNLASQNWNNYDPTEEIPAPLGTPDFVGRIQGVLTQTTRRDGSTRGHKATVSTGSVHFTPKLGSVQFSTDTCNDFETGQNTRFTPVGVVQDCSTTHQNEPQQWVLPDYSGRDSHNVHLAPAVAPTFPGEQLLFFRSTMPGCSGYPNMNLDCLLPQEWVQHFYQESAPAQSDVALLRFVNPDTGRVLFECKLHKSGYVTVAHTGQHDLVIPPNGYFRFDSWVNQFYTLAPMGNGAGRRRAL	binds
